Three molecules from patent US7544481 (REGENTS OF THE UNIVERSITY OF MICHIGAN, dated 2009) can be followed below.

B3: CD40bp fused to the activation domain of GAL4 (other, not shown: large carriers)
chain: MESSKKMDSPGALQTNPPLKLHTDRSAGTPVFVPEQGGYKEKFVKTVEDKYKCEKCHLVLCSPKQTECGHRFCESCMAALLSSSSPKCTACQESIVKDKVFKDNCCKREILALQIYCRNESRGCAEQLMLGHLVHLKNDCHFEELPCVRPDCKEKVLRKDLRDHVEKACKYREATCSHCKSQVPMIALQKHEDTDCPCVVVSCPHKCSVQTLLRSELSAHLSECVNAPSTCSFKRYGCVFQGTNQQIKAHEASSAVQHVNLLKEWSNSLEKKVSLLQNESVEKNKSIQSLHNQICSFEIEIERQKEMLRNNESKILHLQRVIDSQAEKLKELDKEIRPFRQNWEEADSMKSSVESLQNRVTELESVDKSAGQVARNTGLLESQLSRHDQMLSVHDIRLADMDLGFQVLETASYNGVLIWKIRDYKRRKQEAVMGKTLSLYSQPFYTGYFGYKMCARVYLNGDGMGKGTHLSLFFVIMRGEYDALLPWPFKQKVTLMLMDQGSSRRHLGDAFKPDPNSSSFKKPTGEMNIASGCPVFVAQTVLENGTYIKDDTIFIKVIVDTSDLPDP
notes: Prey from a human B-cell cDNA library; also called CD40bp (yeast prey, pACT)

The target in assay [1] is B3. The assay can be described thus: yeast two-hybrid cotransformation, beta-galactosidase filter assay. The text has this: (§1) Yeast Two-hybrid Screen—Using a modification of the method of Harper et al. (1993) *Cell* 75:805-816, a hybrid gene encoding the GAL4 DNA-binding domain (amino acids 1-147), hemagglutinin ("HA") epitope tag, and CD40 cytoplasmic region (amino acids 216-279) was constructed in the yeast bait vector pAS1CYH2. This construct was designated GAL4CD40, and expression of the fusion protein was confirmed by anti-HA immunoblotting. This bait plasmid was cotransformed with a human B-cell cDNA expression library (prey) fused to the activation domain of GAL4 in the pACT plasmid. Interaction between bait- and prey-encoded genes in the Y190 yeast strain reconstitutes GAL4 as an active transcriptional complex, allowing growth in the absence of histidine and activation of the β-galactosidase reporter gene. Thirty-six of the 10^6 transformants screened grew in the absence of histidine and had detectable β-galactosidase staining within 10 minutes of incubation with the chromogenic substrate 5-bromo-4-chloro-3-indolyl β-D-galactoside. […] Cotransformation assays were repeated in the yeast Y190 strain, where CD40bp fused to the activation domain of GAL4 was cotransformed with native CD40 (pCD40T) or the indicated heterologous baits expressed as fusions with the DNA-binding domain of GAL4. […]

The target of assay [2] is [35S]methionine-labeled luciferase protein (UniProt P08659 1-550 = luciferase, limits assumed, [35S]methionine label). The assay can be described thus: GST pull-down of in vitro translated 35S-labeled protein, autoradiography. The procedure: GST Fusion Protein Expression and In Vitro Binding Assay—Native (CD40T) and mutant (CD40A) CD40 sequences used in the construction of the yeast bait vectors were excised and subcloned into the glutathione S-transferase ("GST") fusion protein vector pGSTag (as described in Ron et al. (1992) *BioTechniques* 13:866-869) and transformed into the *Escherichia coli* strain BL21 […] pLysS (as described in Studier et al. (1991) *J. Mol. Bio.* 219:37-44). GST and GST fusion proteins were prepared using published procedures of Studier et al. (1991) supra, and the recombinant proteins were immobilized onto glutathione-agarose beads at a concentration of about 8 mg/ml (as described in Harper et al. (1993) supra).
Chain of [35S]methionine-labeled luciferase protein (P08659 whole entry, the tested form may be a part): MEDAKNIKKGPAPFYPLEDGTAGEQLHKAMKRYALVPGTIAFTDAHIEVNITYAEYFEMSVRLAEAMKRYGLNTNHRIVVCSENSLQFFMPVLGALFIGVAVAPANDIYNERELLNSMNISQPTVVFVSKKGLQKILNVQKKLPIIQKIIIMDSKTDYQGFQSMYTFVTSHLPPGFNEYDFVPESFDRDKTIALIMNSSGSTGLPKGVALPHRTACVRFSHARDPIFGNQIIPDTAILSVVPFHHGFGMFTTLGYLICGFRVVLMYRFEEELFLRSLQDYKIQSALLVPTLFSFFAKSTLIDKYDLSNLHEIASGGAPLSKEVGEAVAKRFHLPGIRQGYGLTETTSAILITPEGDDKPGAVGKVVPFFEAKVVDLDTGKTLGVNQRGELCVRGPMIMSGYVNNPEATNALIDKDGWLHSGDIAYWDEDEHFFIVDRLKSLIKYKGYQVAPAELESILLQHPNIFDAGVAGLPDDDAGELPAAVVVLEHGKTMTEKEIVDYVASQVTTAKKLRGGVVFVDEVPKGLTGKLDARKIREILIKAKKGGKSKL
Figure 2: FIGS. 2A and 2B show the interaction of in vitro translated CD40bp with GST fusion proteins. [^35S]Methionine-labeled CD40bp or luciferase protein as control was incubated with GST alone, GSTCD40T (native CD40 cytoplasmic domain), or GSTCD40A (mutant CD40 cytoplasmic domain $Thr^234 \rightarrow Ala$). Following incubation and washing, GST beads were boiled in SDS-sample buffer and resolved on a 10% acrylamide gel, and bound protein was visualized by autoradiography.

Assay [3] concerns the target yeast Ser-Thr kinase SNF1 fused to the DNA-binding domain of GAL4 (yeast, UniProt P04386 1-147; P06782 1-633, limits assumed). The assay can be described thus: yeast two-hybrid cotransformation, beta-galactosidase filter assay.
Source text: as §1

B1: cytoplasmic domain of the p55 TNF receptor (amino acids 206-426) fused to the DNA-binding domain of GAL4 (other, UniProt P04386 1-147, looked up)
chain: MKLLSSIEQACDICRLKKLKCSKEKPKCAKCLKNNWECRYSPKTKRSPLTRAHLTEVESRLERLEQLFLLIFPREDLDMILKMDSLQDIKALLTGLFVQDNVNKDAVTDRLASVETDMPLTLRQHRISATSSSEESSNKGQRQLTVSRYQRWKSKLYSIVCGKSTPEKEGELEGTTTKPLAPNPSFSPTPGFTPTLGFSPVPSSTFTSSSTYTPGDCPNFAAPRREVAPPYQGADPILATALASDPIPNPLQKWEDSAHKPQSLDTDDPATLYAVVENVPPLRWKEFVRRLGLSDHEIDRLELQNGRCLREAQYSMLATWRRRTPRREATLELLGRVLRDMDLLGCLEDIEEALCGPAALPPAPSLLR
notes: The numbering probably counts on the mature receptor; also called pTNFR
Turning to B1, the binding result in assay [1] is given as “no binding”.

B2: GSTCD40T (GST fused to the native CD40 cytoplasmic domain) (other, human, UniProt P25942 216-277, looked up)
chain: KKVAKKPTNKAPHPKQEPQEINFPDDLPGSNTAAPVQETLHGCQPVTQEDGKESRISVQERQ
notes: range 216-279; Immobilized on glutathione-agarose beads; also called native CD40 (GSTCD40T); not shown: glutathione S-transferase of the vector pGSTag
With B2, the binding result in assay [2] is “no binding”. B3: the binding result in assay [3] is given as “no binding”.
